Assay results: publication PMC10580383, “Development of Melanocortin 4 Receptor Agonists by Exploiting Animal-Derived Macrocyclic, Disulfide-Rich Peptide Scaffolds” (ACS Pharmacology & Translational Science, 2023)
Bridges are numbered along the chain shown (N, C = ends). Where no end group is shown, it is not given here. [ ]: non-standard residue; d: D form.

B1: arenicin-3-like peptide 1 (peptide)
peptide: GFCWYVCPH[dF]HWCYRRCN-NH2
modifications: disulfide 7-13, 3-17; N-terminus assumed
SMILES: CC(C)[C@@H]1NC(=O)[C@H](Cc2ccc(O)cc2)NC(=O)[C@H](Cc2c[nH]c3ccccc23)NC(=O)[C@@H](NC(=O)[C@H](Cc2ccccc2)NC(=O)CN)CSSC[C@@H](C(=O)N[C@@H](CC(N)=O)C(N)=O)NC(=O)[C@H](CCCNC(=N)N)NC(=O)[C@H](CCCNC(=N)N)NC(=O)[C@H](Cc2ccc(O)cc2)NC(=O)[C@@H]2CSSC[C@H](NC1=O)C(=O)N1CCC[C@H]1C(=O)N[C@@H](Cc1c[nH]cn1)C(=O)N[C@H](Cc1ccccc1)C(=O)N[C@@H](Cc1c[nH]cn1)C(=O)N[C@@H](Cc1c[nH]c3ccccc13)C(=O)N2
B2: protegrin-4-like peptide 1 (peptide)
peptide: RGGRLCYCPH[dF]HWCFCVGR-NH2
modifications: disulfide 8-14, 6-16; N-terminus assumed
SMILES: CC(C)C[C@H](NC(=O)[C@H](CCCNC(=N)N)NC(=O)CNC(=O)CNC(=O)[C@@H](N)CCCNC(=N)N)C(=O)N[C@H]1CSSC[C@@H](C(=O)N[C@H](C(=O)NCC(=O)N[C@@H](CCCNC(=N)N)C(N)=O)C(C)C)NC(=O)[C@H](Cc2ccccc2)NC(=O)[C@@H]2CSSC[C@H](NC(=O)[C@H](Cc3ccc(O)cc3)NC1=O)C(=O)N1CCC[C@H]1C(=O)N[C@@H](Cc1c[nH]cn1)C(=O)N[C@H](Cc1ccccc1)C(=O)N[C@@H](Cc1c[nH]cn1)C(=O)N[C@@H](Cc1c[nH]c3ccccc13)C(=O)N2

Key:
[1] = biological target: human melanocortin 4 receptor with LgBit fused at the C-terminus (human) (UniProt P32245)
Chain of human melanocortin 4 receptor with LgBit fused at the C-terminus (human) (P32245 whole entry, the tested form may be a part): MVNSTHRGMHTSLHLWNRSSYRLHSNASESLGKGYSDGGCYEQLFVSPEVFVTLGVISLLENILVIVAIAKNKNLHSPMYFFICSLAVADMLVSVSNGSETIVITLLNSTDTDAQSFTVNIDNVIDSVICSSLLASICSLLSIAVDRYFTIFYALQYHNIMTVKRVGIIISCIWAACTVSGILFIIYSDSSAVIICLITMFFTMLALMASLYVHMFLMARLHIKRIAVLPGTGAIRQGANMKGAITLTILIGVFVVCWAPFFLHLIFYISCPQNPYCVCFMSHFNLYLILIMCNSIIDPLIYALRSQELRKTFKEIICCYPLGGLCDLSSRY

[2] = biological target: mouse melanocortin 4 receptor fused to EGFP (mouse) (UniProt P56450)
Chain of mouse melanocortin 4 receptor fused to EGFP (mouse) (P56450 whole entry, the tested form may be a part): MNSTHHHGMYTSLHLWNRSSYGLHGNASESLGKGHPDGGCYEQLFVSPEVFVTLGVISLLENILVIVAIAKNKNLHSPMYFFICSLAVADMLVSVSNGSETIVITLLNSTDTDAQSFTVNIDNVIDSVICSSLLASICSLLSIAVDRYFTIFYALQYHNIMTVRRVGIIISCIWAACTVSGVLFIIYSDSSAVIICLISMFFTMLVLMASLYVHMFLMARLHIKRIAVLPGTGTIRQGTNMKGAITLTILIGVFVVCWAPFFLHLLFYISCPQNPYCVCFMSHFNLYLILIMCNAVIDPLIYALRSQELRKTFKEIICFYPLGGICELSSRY

[3] = biological target: mouse melanocortin 4 receptor fused to EGFP (mouse) (UniProt P56450); remark: listed apart in the source
[4] = biological target: human melanocortin 4 receptor with C-terminally fused SmBit (human) (UniProt P32245)
Chain of human melanocortin 4 receptor with C-terminally fused SmBit (human) (P32245 whole entry, the tested form may be a part): as the sequence (P32245 whole entry, the tested form may be a part) above

Binder	coupling of Gαs-SmBit to MC4R-LgBit (nanoluciferase complementation, live cells): EC50 [1]	coupling of Gαs-SmBit to MC4R-LgBit (nanoluciferase complementation, live cells): efficacy above that of α-MSH (% more efficacious than α-MSH) [1]	cAMP accumulation (Cisbio HTRF) in HEK293 cells transiently expressing mouse MC4R-EGFP: EC50 [2]	cAMP accumulation (Cisbio HTRF) in HEK293 cells transiently expressing mouse MC4R-EGFP: Emax (normalised to NDP-α-MSH) [2]	recruitment of β-arrestin-2-nanoluciferase to MC4R-EGFP (kinetic BRET, HEK293 cells), 10 μM peptide: BRET efficiency relative to NDP-α-MSH (100) [3]	recruitment of β-arrestin-2-LgBit to MC4R-SmBit (nanoluciferase complementation, live cells): EC50 [4]	recruitment of β-arrestin-2-LgBit to MC4R-SmBit (nanoluciferase complementation, live cells): increase in efficacy (Emax) over α-MSH (% increase in efficacy compared to α-MSH) [4]
B1	0.702 nM	25	1 nM	98%	> 130%	25.2 nM	82
B2	0.193 nM	8.8	3.7 nM	96%	> 130%	23.5 nM	99
